The target in the experiment is murine TMEM219 expressed on murine islets and the murine beta cell line beta-TC (mouse) (UniProt Q9D123). The experiment in a line: cell-based or functional assay.
Sequence of UniProt Q9D123 (Q9D123 39-240): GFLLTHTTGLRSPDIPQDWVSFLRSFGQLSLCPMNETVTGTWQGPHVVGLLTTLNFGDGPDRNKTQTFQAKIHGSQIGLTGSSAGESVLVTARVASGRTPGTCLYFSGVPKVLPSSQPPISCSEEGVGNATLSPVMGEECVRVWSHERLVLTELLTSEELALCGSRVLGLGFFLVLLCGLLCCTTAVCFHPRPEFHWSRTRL

Substance “recombinant human IGFBP3 (Life Technologies, 10430H07H5) (from UniProt P17936 28-291) (ligand)” gave an early apoptosis of murine islets by FACS (Annexin V+ 7AAD-), IGFBP3-treated vs. untreated of 87%.

The values above are taken from patent US20210169973A1.
